Numbering of substitutions follows the chain as printed.
T1: OC2SQ (human, UniProt O95948 330-485, S364A;Q365A)
T1 sequence: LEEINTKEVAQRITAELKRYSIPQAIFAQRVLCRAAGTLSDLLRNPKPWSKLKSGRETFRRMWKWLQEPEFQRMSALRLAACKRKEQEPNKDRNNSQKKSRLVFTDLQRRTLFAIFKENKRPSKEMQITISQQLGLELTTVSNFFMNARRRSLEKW

T2: OC2R479 (human, UniProt O95948 330-485, R479A)
T2 sequence: T1 sequence with A35S, A36Q, R150A

T3: OC2R480 (human, UniProt O95948 330-485, R480A)
T3 sequence: T1 sequence with A35S, A36Q, R151A

T4: OC2N (human, UniProt O95948 330-485, N476A)
T4 sequence: T1 sequence with A35S, A36Q, N147A

T5: OC2 CUT domain;OC2 HOX domain (human;human, UniProt O95948;O95948 317-417;420-490, |)
T5 sequence 1: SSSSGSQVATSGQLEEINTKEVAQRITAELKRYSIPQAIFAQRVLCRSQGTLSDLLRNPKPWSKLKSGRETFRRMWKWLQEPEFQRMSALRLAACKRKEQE
T5 sequence 2: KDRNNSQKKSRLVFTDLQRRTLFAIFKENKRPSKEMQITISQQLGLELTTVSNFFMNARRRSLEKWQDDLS

T6: OC2 (CUT-HOX DNA binding region, wild type) (human, UniProt O95948 330-485)
T6 sequence: T1 sequence with A35S, A36Q

T7: OC2 CUT domain (human, UniProt O95948 317-417)
T7 sequence: T5 sequence 1

T8: ONECUT2 (OC2) residues 317-417, containing the CUT domain (Homo sapiens (Human), UniProt O95948)
T8 chain: T5 sequence 1

B1: PEG10 promoter DNA (12mer duplex) (dsDNA)
DNA 1: AGATCGATTTGC
DNA 2: GCAAATCGATCT
B2: ONECUT2 (OC2) residues 420-490, containing the HOX domain (protein)
chain: T5 sequence 2

What was measured:
[1] = biological target: T1, OC2SQ; experiment: ITC; ITC: 1X PBS pH 7.4, 0.005% Tween-20, 1 mM beta-ME, 25 C (also 12 and 30 C for heat capacity); BLI: 1X PBS, 0.5 mM TCEP, 0.005% Tween-20; conditions: protein: recombinant; tags: His6 removed by TEV
[2] = biological target: T2, OC2R479; experiment: as above; conditions: protein: recombinant; tags: His6 removed by TEV
[3] = biological target: T3, OC2R480; experiment: as above; conditions: protein: recombinant; tags: His6 removed by TEV
[4] = biological target: T4, OC2N; experiment: as above; conditions: protein: recombinant; tags: His6 removed by TEV
[5] = biological target: T5, OC2 CUT domain;OC2 HOX domain; experiment: ITC; CUT and HOX as separate polypeptides; ITC: 1X PBS pH 7.4, 0.005% Tween-20, 1 mM beta-ME, 25 C (also 12 and 30 C for heat capacity); BLI: 1X PBS, 0.5 mM TCEP, 0.005% Tween-20; conditions: protein: recombinant;recombinant; copies: 1;1
[6] = biological target: T6, OC2 (CUT-HOX DNA binding region, wild …); experiment: ITC; 25 C; ITC: 1X PBS pH 7.4, 0.005% Tween-20, 1 mM beta-ME, 25 C (also 12 and 30 C for heat capacity); BLI: 1X PBS, 0.5 mM TCEP, 0.005% Tween-20; conditions: protein: recombinant; tags: His6 removed by TEV
[7] = biological target: T7, OC2 CUT domain; experiment: as above; conditions: protein: recombinant; tags: His6-MBP, removed by TEV (same protocol as OC2)
[8] = biological target: T8, ONECUT2 (OC2) residues 317-417, …; experiment: ITC (implied; data not shown); absence of DNA

| binding result [8] | Binder | Kd [1] | Kd [2] | Kd [3] | Kd [4] | Kd [5] | Kd [6] | Kd [7] |
| --- | --- | --- | --- | --- | --- | --- | --- | --- |
|  | B1 | 51 ± 9 nM | 6 nM | 47 nM | 70 ± 11 nM | 1380 ± 279 nM | 7 ± 2 nM | 2030 ± 262 nM |
| no binding | B2 |  |  |  |  |  |  |  |

— article PMC11490551, “The homeodomain regulates stable DNA binding of prostate cancer target ONECUT2”
